Laboratory results from paper PMC8423587 (Nature chemical biology, 2019).

Molecular target: T1, ELIC 7′C pore mutant (L238C in the cysteine-free background C300S/C313S) (Erwinia (as in the name Erwinia …))
T1 chain: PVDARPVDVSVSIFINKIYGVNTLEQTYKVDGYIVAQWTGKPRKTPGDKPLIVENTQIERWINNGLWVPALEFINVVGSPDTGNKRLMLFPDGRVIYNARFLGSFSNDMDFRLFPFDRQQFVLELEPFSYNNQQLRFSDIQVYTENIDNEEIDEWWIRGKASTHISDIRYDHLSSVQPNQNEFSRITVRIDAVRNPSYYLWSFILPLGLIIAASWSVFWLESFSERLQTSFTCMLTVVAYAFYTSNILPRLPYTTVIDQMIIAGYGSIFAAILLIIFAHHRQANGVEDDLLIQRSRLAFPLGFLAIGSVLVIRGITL
Assay: crystal structure

B1: nanobody 72 (VHH)
VHH: QVQLQESGGGLVQAGGSLRLSCAASGRIFSTNVMGWFRQAPGKEREFVATVGRIGGSTVYADFVKGRFTLSRDNAKNMVYLQMNSLKPEDTAVYYCGARIGGSDRLAPENYGYWGQGTQVTVSS
In the case of B1, the “stoichiometry N” value is reported as 5 Nb72 per ELIC pentamer.
